Measured values from the Immune Epitope Database (IEDB).

Legend:
HLA-B*15:03 = test: IEDB peptide-MHC binding, purified MHC/competitive/radioactivity; filed as Kd, often an IC50 or EC50 that approximates it; ≥ and ≤ were set here for values at or beyond the usual limits of such assays
HLA-A*03:01 [1] = test: IEDB peptide-MHC binding, purified MHC/competitive/fluorescence; filed as Kd, often an IC50 or EC50 that approximates it; ≥ and ≤ were set here for values at or beyond the usual limits of such assays
HLA-B*83:01 = test: as above; conditions: source organism: Salmonella enterica subsp. enterica serovar Typhi
HLA-B*45:06 = test: as above; conditions: source organism: Salmonella enterica subsp. enterica serovar Typhi
HLA-B*15:42 = test: as above; conditions: source organism: Salmonella enterica subsp. enterica serovar Typhi
HLA-B*57:01 [2] = test: IEDB peptide-MHC binding, purified MHC/direct/fluorescence; filed as Kd, often an IC50 or EC50 that approximates it; ≥ and ≤ were set here for values at or beyond the usual limits of such assays; conditions: source organism: Mammarenavirus juninense
HLA-A*69:01 [3] = test: as above; conditions: source organism: Mammarenavirus juninense
HLA-B*58:01 = test: as above; conditions: source organism: Mammarenavirus juninense
HLA-B*39:01 [4] = test: as above
HLA-B*40:01 = test: as above
HLA-B*07:02 = test: as above
HLA-A*02:01 [5] = test: as above; conditions: source organism: Mammarenavirus juninense
HLA-B*27:05 = test: as above
HLA-B*44:02 = test: as above
HLA-A*03:01 [6] = test: as above
HLA-B*46:01 [7] = test: as above
HLA-A*01:01 = test: as above
HLA-B*18:01 [8] = test: as above; conditions: source organism: Mammarenavirus juninense
HLA-B*15:01 [9] = test: as above; conditions: source organism: Mammarenavirus juninense
HLA-A*29:02 = test: as above
HLA-A*31:01 = test: as above; conditions: source organism: Mammarenavirus juninense
HLA-B*57:01 [10] = test: IEDB peptide-MHC binding, purified MHC/competitive/fluorescence; filed as Kd, often an IC50 or EC50 that approximates it; ≥ and ≤ were set here for values at or beyond the usual limits of such assays
HLA-A*69:01 [11] = test: as above
HLA-B*51:01 = test: as above
HLA-B*39:01 [12] = test: as above
HLA-A*02:01 [13] = test: as above
HLA-B*27:03 = test: as above
HLA-B*15:17 = test: as above
HLA-B*46:01 [14] = test: as above
HLA-A*26:01 = test: as above
HLA-B*18:01 [15] = test: as above
HLA-B*15:01 [16] = test: as above
HLA-A*02:11 = test: IEDB peptide-MHC binding, purified MHC/direct/fluorescence; filed as Kd, often an IC50 or EC50 that approximates it; ≥ and ≤ were set here for values at or beyond the usual limits of such assays; conditions: source organism: Zaire ebolavirus
HLA-A*02:19 = test: as above
HLA-A*02:12 = test: as above
HLA-A*02:03 = test: as above
HLA-A*02:16 = test: as above
HLA-A*68:02 = test: as above
HLA-A*24:03 = test: as above
HLA-A*11:01 = test: as above; conditions: source organism: Coxiella burnetii
[17] = source organism: Vaccinia virus WR
[18] = source organism: Mammarenavirus juninense
[19] = source organism: Zaire ebolavirus
[20] = source organism: Coxiella burnetii
[21] = source organism: Mammarenavirus lassaense
[22] = source organism: Mycobacterium tuberculosis variant bovis BCG str. Pasteur 1173P2
[23] = source organism: Hantavirus HPR/02-73
[24] = source organism: Araucaria virus

## AKSQSDTVF
HLA-B*15:03; [17]
  Kd: 0.00016 µM

## FMLSVHYRK
HLA-A*03:01 [1]; source organism: Listeria monocytogenes HCC23
  Kd: 0.364 µM

## FMYFCEQKL
HLA-B*15:03; [17]
  Kd: 0.0357 µM

## FSMLGIWFF
HLA-B*15:03; source organism: Vaccinia virus Copenhagen
  Kd: 0.0283 µM

## FTFKVNSVK
HLA-B*83:01
  Kd: ≥ 5 µM
HLA-B*45:06
  Kd: ≥ 5 µM
HLA-A*03:01 [1]; source organism: Salmonella enterica subsp. enterica serovar Typhi
  Kd: 0.152 µM
HLA-B*15:42
  Kd: ≥ 5 µM

## GKLDPTNTL
HLA-B*57:01 [2]
  Kd: ≥ 20 µM
HLA-A*69:01 [3]
  Kd: ≥ 20 µM
HLA-B*58:01
  Kd: ≥ 20 µM
HLA-B*39:01 [4]; [18]
  Kd: 3 µM
HLA-B*40:01; [18]
  Kd: ≥ 20 µM
HLA-B*07:02; [18]
  Kd: ≥ 20 µM
HLA-A*02:01 [5]
  Kd: ≥ 20 µM
HLA-B*27:05; [18]
  Kd: ≥ 20 µM
HLA-B*44:02; [18]
  Kd: ≥ 20 µM
HLA-A*03:01 [6]; [18]
  Kd: ≥ 20 µM
HLA-B*46:01 [7]; [18]
  Kd: ≥ 20 µM
HLA-A*01:01; [18]
  Kd: ≥ 20 µM
HLA-B*18:01 [8]
  Kd: ≥ 20 µM
HLA-B*15:01 [9]
  Kd: ≥ 20 µM
HLA-A*29:02; [18]
  Kd: ≥ 20 µM
HLA-A*31:01
  Kd: ≥ 20 µM

## HISWQGPGK
HLA-A*03:01 [1]; source organism: Vibrio atlanticus LGP32
  Kd: 0.218 µM

## IEVSSDISF
HLA-B*15:03; [17]
  Kd: 0.00974 µM

## IFLKPDETF
HLA-B*57:01 [10]; [19]
  Kd: ≥ 20 µM
HLA-A*69:01 [11]; [19]
  Kd: ≥ 20 µM
HLA-B*51:01; [19]
  Kd: ≥ 20 µM
HLA-B*39:01 [12]; [19]
  Kd: ≥ 20 µM
HLA-A*02:01 [13]; [19]
  Kd: ≥ 20 µM
HLA-B*27:03; [19]
  Kd: ≥ 20 µM
HLA-B*15:17; [19]
  Kd: ≥ 20 µM
HLA-B*46:01 [14]; [19]
  Kd: ≥ 20 µM
HLA-A*26:01; [19]
  Kd: ≥ 20 µM
HLA-B*18:01 [15]; [19]
  Kd: ≥ 20 µM
HLA-B*15:01 [16]; [19]
  Kd: ≥ 20 µM
HLA-A*02:11
  Kd: ≥ 20 µM
HLA-A*02:19; [19]
  Kd: ≥ 20 µM
HLA-A*02:12; [19]
  Kd: ≥ 20 µM
HLA-A*02:03; [19]
  Kd: ≥ 20 µM
HLA-A*03:01 [6]; [19]
  Kd: ≥ 20 µM
HLA-A*02:16; [19]
  Kd: ≥ 20 µM
HLA-A*68:02; [19]
  Kd: ≥ 20 µM
HLA-A*24:03; source organism: Sudan ebolavirus - Maleo (1979)
  Kd: 0.0366 µM

## KFFMVHSLK
HLA-B*57:01 [10]; [20]
  Kd: ≥ 20 µM
HLA-A*69:01 [11]; [20]
  Kd: ≥ 20 µM
HLA-B*51:01; [20]
  Kd: ≥ 20 µM
HLA-B*39:01 [12]; [20]
  Kd: ≥ 20 µM
HLA-A*02:01 [13]; [20]
  Kd: ≥ 20 µM
HLA-B*27:03; [20]
  Kd: ≥ 20 µM
HLA-B*15:17; [20]
  Kd: ≥ 20 µM
HLA-B*46:01 [14]; [20]
  Kd: ≥ 20 µM
HLA-A*26:01; [20]
  Kd: ≥ 20 µM
HLA-B*18:01 [15]; [20]
  Kd: ≥ 20 µM
HLA-A*02:19; [20]
  Kd: ≥ 20 µM
HLA-A*11:01
  Kd: 0.603 µM
HLA-A*02:12; [20]
  Kd: ≥ 20 µM
HLA-A*02:03; [20]
  Kd: ≥ 20 µM
HLA-A*02:16; [20]
  Kd: ≥ 20 µM
HLA-A*68:02; [20]
  Kd: ≥ 20 µM
HLA-A*24:03; [20]
  Kd: ≥ 20 µM

## KIVMTPSPF
HLA-B*15:03; [17]
  Kd: 0.211 µM

## KREEHYIVL
HLA-B*39:01 [4]; [21]
  Kd: 0.1 µM
HLA-B*07:02; [21]
  Kd: ≥ 20 µM
HLA-B*27:05; [21]
  Kd: ≥ 20 µM
HLA-B*44:02; [21]
  Kd: ≥ 20 µM
HLA-A*03:01 [6]; [21]
  Kd: ≥ 20 µM
HLA-B*46:01 [7]; [21]
  Kd: ≥ 20 µM

## LKSPKRCSF
HLA-B*15:03; [17]
  Kd: 0.00274 µM

## LMMTLPSIF
HLA-B*15:03; [17]
  Kd: 0.000152 µM

## MTSGSSSGF
HLA-A*01:01; source organism: Mycobacterium tuberculosis
  Kd: ≥ 5 µM
HLA-A*29:02; source organism: Mycobacterium tuberculosis H37Rv
  Kd: 0.051 µM

## QETWTRLVL
HLA-B*39:01 [4]; [22]
  Kd: 0.108 µM
HLA-B*40:01; [22]
  Kd: 0.0389 µM

## RLLHRTTRH
HLA-A*03:01 [1]; source organism: Burkholderia vietnamiensis G4
  Kd: 0.012 µM

## SQVRVPTVF
HLA-B*57:01 [10]; [19]
  Kd: ≥ 20 µM
HLA-A*69:01 [11]; [19]
  Kd: ≥ 20 µM
HLA-B*51:01; [19]
  Kd: ≥ 20 µM
HLA-B*39:01 [12]; [19]
  Kd: ≥ 20 µM
HLA-A*02:01 [13]; [19]
  Kd: ≥ 20 µM
HLA-B*27:03; [19]
  Kd: ≥ 20 µM
HLA-B*15:17; [19]
  Kd: ≥ 20 µM
HLA-B*46:01 [14]; [19]
  Kd: ≥ 20 µM
HLA-A*26:01; [19]
  Kd: ≥ 20 µM
HLA-A*02:11
  Kd: ≥ 20 µM
HLA-A*02:19; [19]
  Kd: ≥ 20 µM
HLA-A*02:12; [19]
  Kd: ≥ 20 µM
HLA-A*02:03; [19]
  Kd: ≥ 20 µM
HLA-A*03:01 [6]; [19]
  Kd: ≥ 20 µM
HLA-A*02:16; [19]
  Kd: ≥ 20 µM
HLA-A*68:02; [19]
  Kd: ≥ 20 µM
HLA-A*24:03; source organism: Sudan ebolavirus - Uganda (2000)
  Kd: ≥ 20 µM
HLA-A*29:02; [19]
  Kd: ≥ 20 µM

## VIWAASGFY
HLA-A*03:01 [1]; source organism: Yersinia pestis Nepal516
  Kd: 0.0956 µM

## WKAIGAYIL
HLA-B*57:01 [10]; [23]
  Kd: ≥ 20 µM
HLA-A*69:01 [11]; [23]
  Kd: ≥ 20 µM
HLA-B*51:01; [23]
  Kd: ≥ 20 µM
HLA-B*27:03; [23]
  Kd: ≥ 20 µM
HLA-B*15:17; [23]
  Kd: ≥ 20 µM
HLA-B*46:01 [14]; [23]
  Kd: ≥ 20 µM
HLA-A*26:01; [23]
  Kd: ≥ 20 µM
HLA-B*18:01 [15]; [23]
  Kd: ≥ 20 µM
HLA-B*15:01 [16]; [23]
  Kd: ≥ 20 µM
HLA-A*02:19; [24]
  Kd: ≥ 20 µM
HLA-B*39:01 [4]; source organism: Juquitiba virus
  Kd: 0.0269 µM
HLA-A*02:12; [24]
  Kd: ≥ 20 µM
HLA-A*02:03; [24]
  Kd: ≥ 20 µM
HLA-A*03:01 [6]; [24]
  Kd: ≥ 20 µM
HLA-A*68:02; [24]
  Kd: ≥ 20 µM
HLA-A*24:03; [24]
  Kd: ≥ 20 µM
HLA-A*29:02; [24]
  Kd: ≥ 20 µM
